US20160207996A1 (ARGEN X N V, published 2016)

What was measured:
[1] = target: T1, GST-tagged hNav1.7-loopA3 (human, UniProt Q15858 269-339); experiment: Biacore SPR, antigen on CM5 chip, mAb in flow
T1 construct: monomeric GST-tagged peptide; also called hNav1.7-loopA3-GST; Nav1.7-loopA3-GST; not shown: GST tag
Procedure: (§1) In a further experiment, affinity of the loopA3-binding mAbs was determined using Biacore Surface Plasmon Resonance (SPR) analysis.

[2] = target: T2, hNav1.7-loopA3-llama Fc fusion (human); experiment: Biacore SPR, antigen on CM5 chip, mAb in flow
T2 construct: also called hNav1.7-loopA3-llFc; loopA3-llamaFc chimera
T2 chain: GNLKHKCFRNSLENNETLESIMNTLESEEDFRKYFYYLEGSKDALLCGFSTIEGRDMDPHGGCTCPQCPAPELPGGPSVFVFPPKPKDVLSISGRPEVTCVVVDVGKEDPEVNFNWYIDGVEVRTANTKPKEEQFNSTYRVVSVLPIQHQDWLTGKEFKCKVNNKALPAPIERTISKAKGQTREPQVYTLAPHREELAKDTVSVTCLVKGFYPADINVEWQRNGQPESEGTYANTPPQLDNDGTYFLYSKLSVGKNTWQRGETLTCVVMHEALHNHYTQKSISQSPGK
Procedure: as §1

[3] = target: T2, hNav1.7-loopA3-llama Fc fusion; experiment: ELISA, coated hNav1.7-loopA3-llama Fc, mAb titrated
Procedure: mAbs originating from the loopA3-llama Fc immunization were assayed for their affinity for hNav1.7-loopA3. Therefore, a Maxisorp plate was coated with 10 ng/well of loopA3-llamaFc chimera and incubated overnight at 4° C. The next day, the plate was blocked with PBS+1% casein for 2 hours at RT. Subsequently a concentration gradient of antibodies was applied (range 0.25 pM-66 nM) for another hour. Antibody binding to loopA3 was detected using a HRP-conjugated anti-human Fc antibody (Abcam, Ab7499) (incubation 1 hour at RT, dilution 1/5000 in PBS+0.1% casein), followed by TMB addition and OD620 nm measurement. EC50 values were determined using GraphPad Prism software. For comparison purposes a known hNav1.7-loopA3 binding monoclonal antibody, UCB_932 (US2011/0135662), was tested.

Nt-GCGR-hFc = target: T3, Nt-GCGR-hFc (human, UniProt P47871 26-136); experiment: scFv binding ELISA, periplasmic extract on coated Nt-GCGR
T3 construct: domain: N-terminal domain; also called Nt-GCGR-Fc; recombinant N-terminal domain of GCGR; not shown: hFc
T3 sequence (P47871 26-136): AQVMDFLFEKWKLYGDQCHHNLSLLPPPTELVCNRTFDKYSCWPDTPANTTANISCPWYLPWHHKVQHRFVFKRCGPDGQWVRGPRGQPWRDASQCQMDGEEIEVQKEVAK

T1 sequence (Q15858 269-339 limits assumed): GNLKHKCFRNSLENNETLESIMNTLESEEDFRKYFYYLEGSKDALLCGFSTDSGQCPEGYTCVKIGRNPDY

Binder | Kd [1] | koff [1] | Kd [2] | koff [2] | EC50 [3] | ScFv binding ELISA signal (Nt-GCGR-hFc)
4F7 (antibody, human IgG1, V domains shown) VH: QVQLQESGPGLVKPSQTLSLTCTVSGGSITTSFYAWSWIRQPPGKGLEWMGVIAYDGRTFYSPSLKSRTHISRDTSKNQFSLQLSSVTPEDTAVYYCARGGVVAWSYDYWGQGTQVTVSS VL: SYELTQSPSVSVALRQTAKITCGGNDIGSKSTQWYQQKAGQAPVLVIYADSRRPSGIPERFSGSNSGNTATLTISGAQAEDEADYYCQVWDSRADAAVFGGGTHLTVLG | 0.0825 nM | 1.84e-05 s⁻¹ | 0.084 nM | 2.68e-05 s⁻¹ | 0.057 nM | 
scFv D2 (scFv) ELQLVESGGGLVQPGGSLRLSCATSGFTFSNYYMSWVRQAPGKGPEWVSSIYSDLSTTYYADSVKGRFTISRDRAKNTLYLQMNSLKSEDTAVYYCARLSTVAGVDYWGKGTLVTVSSSYELTQSPSVSVALRQAAKITCGGNDIGSKSAQWYQQKPGQAPVLVIYADSRRPSGIPERFSGSNSGNTATLTISGAQAEDEADYYCQVWDSSANAAVFGGGTHLTVLG |  |  |  |  |  | 0.52
2D11 (antibody, human IgG1, V domains shown) VH: EVQLQESGPGLVKPSQTLSLTCTVSGGSITNSYYASSWIRQPPGKGLEWMGVIIYDGSTYYSPSLKSRTSISRDTSKNQFSLQLSSVTPEDTAVYYCARGLRVAGSYFTDFGTWGQGTQVTVSS VL: SYELTQSPSVSVALRQAAKITCGGDNIASKHAHWYQQKPGQSPVLVIYKDSNRPSGIPERFSGSNSGNTATLTVSGAQAEDEADYYCQVWDSSANAAVFGGGTHLTVLG | 0.0879 nM | 2.13e-05 s⁻¹ | 0.0375 nM | 1.26e-05 s⁻¹ | 0.071 nM | 
4E8 (antibody, human IgG1, V domains shown) VH: EVQLQESGGGLVQPGGSLRLSCAASGFTFDDYAMSWVRQAPGKGLEWVSAISWNGGSTYYAESMKGRFTISRDNAKNTLYLQMNSLKSKDTAVYYCARRRYGLGSEYDYWGQGTQVTVSS VL: NFMLTQPSAVSVSLGQTARITCQGSSFGSSYAHWYQQMPGQAPILVIYRDSERPSGIPDRFSGSNSGGTATLTISGAQAEDEADYYCQSGSSSGNAHAVFGGGTHLTVLG | 45.2 nM | 0.00063 s⁻¹ | 4.28 nM | 0.000422 s⁻¹ | 0.129 nM | 
6H8 (antibody, human IgG1, V domains shown) VH: EVQLVESGGGLVQPGGTLRLSCAASGFTFSNYWMHWVRQAPGKGLEWVSVIDRGGGGTRYADSVKGRFTISRDNAKNTLYLRMNSLKPEDTALYYCTRDRNGEYDYWGRGTQVTVSS VL: DIQMTQSPSSVTASAGEKVTINCKSSQSVLYSSNQKNYLAWYQQRLGQSPRLLIYWASTRESGVPDRFSGSGSTTDFTLTINNFQPEDAAVYYCQQGYSAPLTFGQGTKVELK | 0.000609 nM | 6.9e-07 s⁻¹ | 0.00181 nM | 3.58e-06 s⁻¹ | 0.066 nM | 
3F11 (antibody, human IgG1, V domains shown) VH: QVQLVESGGGLVQPGGSLRLSCAASGFTFSSYWMYWVRQAPGKGLEWVSAINTGGGSTYYADSVKGRFTISRDNAKNTLYLQMNSLKPEDTALYYCARGPGYSGSYIEGWAYWGQGTQVTVSS VL: DIVMTQSPTSVTASVGEKVTINCKSSQSVVSGSNQKSYLNWYQQRPGQSPRLLIYHASTQESGIPDRFSGSGSTTDFTLTISSVQPEDAAVYYCQQAYNNPYSFGSGTRLEIK | 0.0374 nM | 1.77e-05 s⁻¹ | 0.0253 nM | 1.56e-05 s⁻¹ | 0.072 nM | 
2F12 (antibody, human IgG1, V domains shown) VH: QVQLVESGGGLVQPGGSLRLSCAASGFTFSSYWMYWVRQAPGKGLEWVSAINTGGGSTYYADSVKGRFTISRDNAKNTLYLQMNSLKPEDTALYYCARGPGYSGKYIEGWAYWGQGTQVTVSS VL: DIVMTQSPRSVTASVGEKVFINCKSSQSVVSESNQRSYLNWYQQRPGQSPRLLIYYASTQESGLPDRFSGSGSTTDFTLTISSVQPEDAAVYYCQQAYSAPYSFGSGTRLEIK | 0.0169 nM | 1.08e-05 s⁻¹ | 0.0241 nM | 1.92e-05 s⁻¹ | 0.057 nM | 
3E1 (antibody, human IgG1, V domains shown) VH: EVQVQESGGGLVQPGGSLRLSCAASGFTFSSYWMYWVRQAPGKGLEWVSAINTGGGSTYYADSVKGRFTISRDNAKNTLYLQMNSLKPEDTALYYCARGPGYSGKYIEGWAYWGQGTQVTVSS VL: DIVMTQSPSSVTASVGEKVTINCKSSQSVVSGSKQKSYLNWYQQRPGQSPRLLIYYASTQESGIPDRFSGSGSTTDFTLTISSVQPEDAAVYYCQQAYSAPYSFGSGTRLEIK | 0.216 nM | 0.000356 s⁻¹ | 0.2 nM | 0.00041 s⁻¹ | 0.063 nM | 

Next, values leading:

Kd [1] | koff [1] | Kd [2] | koff [2] | EC50 [3] | ScFv binding ELISA signal (Nt-GCGR-hFc) | Binder
 |  |  |  |  | 0.1 | scFv D1 (scFv) QVQLQESGGGLVQPGGSLRLSCAASGFTFSWYAMSWVRQGPGKGLEWVSGINGGGGSTSYEDSVKGRFTISRDNAKNTLYLEMNSLKPEDTAVYYCARYSDGYSGSYTYTDMDYWGKGTLVSVSSQAVVTQEPSLSVSPGGTVTLTCGLNSGSVTNGNYPGWYQQTPGQAPRALIYSTNSRHSGVPGRYSGSISGNKAALTITGAEPEDEADYYCALWQAAGTVVFGGGTHLTVLG
 |  |  |  |  | 0.987 | scFv D3 (scFv) QVQVQESGGGLVQPGGSLRLSCATSGFTFSNYYMSWVRQAPGKGPEWVSSIYSDLSTTYYADSVKGRFTISRDRAKNTLYLQMNSLKSEDTAVYYCARLSTVAGMDYWGKGTLVTVSSSYELTQSPSVSVALRQTAKITCGGNDIESKSAQWYQQKPDQAPVLVIYADDRRPSEIPERFSGSNSGDTATLTISGAQAEDEADYYCQVWDSSANAAVFGGGTHLTVLG
3.35 nM | 0.00254 s⁻¹ | 5.1 nM | 0.00422 s⁻¹ | 0.874 nM |  | 4F6 (antibody, human IgG1, V domains shown) VH: QLQLVESGGGLVQPGGSLRLSCAASGFTFDDYAMSWVRQAPGKGLEWVSAISWNGGSTYYAESMKGRFTISRDNAKNTLYLQMNSLKSKDTAVYYCARRRYGLGSEYDYWGQGTQVTVSS VL: HSAVTQPSAVSVSLGQTARITCQGTNLRSSYVHWYQQMPGQAPVLVIYRDSERPSGIPERFSGSSSGGTATLAISGAQAEDEADYYCQSAHRSESAVFGGGTHLTVLG
0.0505 nM | 1.54e-05 s⁻¹ | 0.12 nM | 4.48e-05 s⁻¹ | 0.067 nM |  | 4H6 (antibody, human IgG1, V domains shown) VH: QVQLQESGPGLVKPSQTLSLTCTVSGGSITNYGWSWIRQPPGKGLEWMGVIAYDGSTYYSPSLKSRTSISRDTSKNQFSLQLSSVTPEDTAVYYCASAMVTTSSPWVKTFGAWGQGTQVTVSS VL: QAGLTQPPSVSGSPGKTVTISCAGTSSDVGYGNYVSWYQQLPGMAPKLLLYSVNKRASGIADRFSGSKSGNTASLTISGLQSEDEADYYCGCYDSSLSTPVFGGGTKLTVLG
